Experimental data from the RNAGym collection of RNA variant scans (doi:10.1073/pnas.2313332121).

B1: TPR t1 (parent)
chain: GACCAAUCUGCCCUCAGAGCUCGAGAACAUCUUCGGAUGCAGAGGAGGCAGGCUUCGGUGGCGCGAUAGCGCCAACGUCCUCAACCUCCAAUGCAUCCCACCACAUGAUGAUGCCUGAAGAGCCUUGGUUUUUUG

Variants of: B1
Test: polymerase ribozyme fitness, log enrichment relative to wild type (log ratio); higher = more active; in vitro selection for triplet polymerase activity
Outline: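 Genotype fitness is the logarithm of its enrichment divided by wild-type enrichment, using inverse-variance-weighted averages of replicates. That logarithm is base 2. Enrichment was measured by Illumina sequencing of input and output libraries from one triplicate in vitro selection round, with frozen incubation at −7 °C, on PCR-built, transcribed mutant libraries of each subunit of a heterodimeric triplet polymerase ribozyme, retaining genotypes with ≥10 input reads and ≥1 read per output.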

Going from GACCAAUCUGCCCUCAGAGCUCGAGAACAUCUUCGGAUGCAGAGGAGGUAGGCUUCGGUGGCGCGAUAGCGCCAACGUCCGCAACCUCCAAUGCACCCCACCACAUGAUGAUGCCUGAAGAGCCUUGGUUUUUUG to GACCAAUCUGCCCUCAGAGCUCGAGAACAUCUUCGGAUGCAGAGGAGGUAAGCUUCGGUGGCGCGAUAGCGCCAACGUCCUCAACCUACAAUGCAUCCCACCACAUGAUGAUGCCUGAAGAGCCUUGGUUUUUUG, the “polymerase ribozyme fitness (log ratio)” value rises from -4.63 to -3.64.

First: GACCAAUCUGCCCUCAGAGCUCGAGAACAUCUUCGGAUGCAGAGGAGGUAGGCUUCGGUGGCGCGAUAGCGCCAACGUCCUCAAACUCCAAUGCAUCCCACCACAUGAUGAUGCCUGAAGAGCCUUGGUUUUUUG
Second: GACCAAUCUGCCCUCAGAGCUCGAGAACAUCUUCGGAUGCAGAGGAGGCCGGUUUCGGUGGCGCGAUAGCGCCAACGUCCUCAACCUCCAAUGCAUUCCACCACAUGAUGAUGCCUGAAGAGCCUUGGUUUUUUG
The “polymerase ribozyme fitness (log ratio)” value of the first is lower: -2.47 for the first, -1.01 for the second.

First: GACCAAUCUGCCCUCAGAGCUCGAGAACAUCUUCGGAUGCAGAGGAGGCCGGCUUCGGUGGCGCGAUAGUGCCAACGUCCUCAACCUCCAAUGCAUCCCACCACAUGAUGAUGCCUGAAGAGCCUUGGUUUUUUG
Second: GACCAAUCUGCCCUCAGAGCUCGAGAACAUCUUCGGAUGCAGAGGAGGCCGGCUUCGGUGGCGCGAUAGGGCCAACGUCCUCAACCUCCAAUGCAUCCCACCACAUGAUGAUGCCUGAAGAGCCUUGGUUUUUUG
The “polymerase ribozyme fitness (log ratio)” value of the first is higher: -2.04 for the first, -3.56 for the second.

First: GACCAAUCUGCCCUCAGAGCUCGAGAACAUCUUCGGAUGCAGAGGAGGUAGGCUUCGGUGGCGCGAUAGCGCCAACGUCCUCAACCUCCAAUGCAUCCCACCACAUGAUGAUGCCUGAAGAGCUUUGGUUUUUUG
Second: GACCAAUCUGCCCUCAGAGCUCGAGAACAUCUUCGGAUGCAGAGGAGGUAGGCUUCGGUGGCGCGAUACCGCCAACGUCCUCAACCUCCAAUGCAUCCCACCACAUGAUGAUGCCUGAAGAGCCUUGGUUUUUUG
The “polymerase ribozyme fitness (log ratio)” value of the first is higher: 1.03 for the first, -1.79 for the second.

Compared with GACCAAUCUGCCCUCAGAGCUCGAGAACAUCUUCGGAUGCAGAGGAGGUAGGCUUCGGUGGCGCGAUAUCGCCAACGUCCUCAACCUCCAAUGCAUCCCACCACAUGAUGAUGCCUGAAGAGCCUUGGUUUUUUG, GACCAAUCUGCCCUCAGAGCUCGAGAACAUCUUCGGAUGCAGAGGAGGUAGGCUUCGGUGGCGCGAUAGCGCCAACGUCCUCAACCUCCAAUGCAUCCCACGAAAUGAUGAUGCCUGAAGAGCAUUGGUAUUUUG is lower in “polymerase ribozyme fitness (log ratio)” value: 0.911 for the first, -4.4 for the second.

GACCAAUCUGCCCUCAGAGCUCGAGAACAUCUUCGGAUGCAGAGGAGGUAGGCUUCGGUGGCGCGAUAGCGCCAACGUCCACAACCUCAAAUGCAUCCCACCACAUGAUGAUGCCUGAAGAGCCUUGGUUUUUUG and GACCAAUCUGCCCUCAGAGCUCGAGAACAUCUUCGGAUGCAGAGGAGGUAUGCUUCGGUGGUGCGAUAGCGCCAACGUCAUCAACCUCCAAUGCAUCCCACCACAUGAUGAUACCUGAAGAGCAUUGGUUUUUUG are within 0.2 log units of each other in “polymerase ribozyme fitness (log ratio)” value: -4.05 for the first, -3.94 for the second.

First: GACCAAUCUGCCCUCAGAGCUCGAGAACAUCUUCGGAUGCAGAGGAGGCCGGCUUCGGUGGAGCGAUAGCGCCAACGUUCUCAACCUCCAAUGCAUCCCACCACAUGAUGAUGCCUGAAGAGCCUUGGUUUUUUG
Second: GACCAAUCUGCCCUCAGAGCUCGAGAACAUCUUCGGAUGCAGAGGAGGCCGGCUUCGGUGGCGCGCUAGCGCCAACGUCCUCAACCUCCAAUGCAUCCCUCCACAUGAUGAUGCCUGAAGAGCCUUGGUUUUUUG
The “polymerase ribozyme fitness (log ratio)” value of the first is higher: -1.8 for the first, -3.95 for the second.

Going from GACCAAUCUGCCCUCAGAGCUCGAGAACAUCUUCGGAUGCAGAGGAGGUAGGCUUCGGUGGCGCGAUAGCGCCAACGUCCUCAACCUCCAAUGCAUCCCACCACAUGAUGAUGCCUGAAAAGCCUUGGUUUUUUG to GACCAAUCUGCCCUCAGAGCUCGAGAACAUCUUCGGAUGCAGAGGAGGUAGGCUUCGGUGGCUCGAUAGCGCCAACGUCCUCAACCUCCAAUGCGUCCCACCACAUGAUGAAGCCUGAAGAGCCUUGGUUUUUUG, the “polymerase ribozyme fitness (log ratio)” value falls from 0.0229 to -2.42.

Going from GACCAAUCUGCCCUCAGAGCUCGAGAACAUCUUCGGAUGCAGAGGAGGUAGGCUUCGGUGGCGCGAUAGCGCCAACGUCCUUAACCUCCAAUGCAUCCCACCACAUGAUGAUGCCUGAAGUGCCUUAGUUUUUUG to GACCAAUCUGCCCUCAGAGCUCGAGAACAUCUUCGGAUGCAGAGGAGGUAGGCUUCGGUGGCGCGAUAGCGCCAACGUCCUCAACCUCCAAUGCAUCCCACCACAUGAUGAUGCCUGAAGAGCCUUGCUUUUUUG, the “polymerase ribozyme fitness (log ratio)” value falls from 0.337 to -2.44.

Compared with GACCAAUCUGCCCUCAGAGCUCGAGAACAUCUUCGGAUGCAGAGGAGGUAGGCUUCGGUGGCGCGAUAGCGCCAACGUCCUCAACCUCCAAUGCAUCCCACCACAUGAUGAUUCCUUAAGAGCCUUGGUUUUUUG, GACCAAUCUGCCCUCAGAGCUCGAGAACAUCUUCGGAUGCAGAGGAGGCCGGCUUGGGUGGCGCGAUAGCGCCAACGUCCUCAACCUCCAAUGCAUCCCACCACAUGAUGAUGCCUGAAGAGCCUUGGUUUUUUG is higher in “polymerase ribozyme fitness (log ratio)” value: -5.67 for the first, -0.303 for the second.

In the case of GACCAAUCUGCCCUCAGAGCUCGAGAACAUCUUCGGAUGCAGAGGAGGCCGGCUUCGGUGGCGCGAUAGCGACAACGUCCUCAACCUCCAAUGCAUCCCACCACAUGAUGAUGCCUGAAGAGCUUUGGUAUUUUG, the “polymerase ribozyme fitness (log ratio)” value is reported as 0.593.
